Data from the DeepSol protein solubility set.

Experiment: soluble on expression in E. coli; label from the status in PepcDB or PDB records

Sequence | soluble on expression in E. coli
MSIDKSPREHWASHQERGSFMLMKLTAWGMRVLGRRLLTPVQYGIVLYFFVFGRRARHSIWEYQQRLADWSARPELRPSQRRVFGQFMAFAEALLDKLDVWNGRLGIEQIEIIDPALLRQSLRGARGQMLVGAHLGNLEVCRALAELGEKITMNVLVHTKHAERFNRLLGEAGATNLRLIQVSELDPAIMLQLSQRLDEGEWLAIAGDRVALHGGRNVRVDFLGQPATFPQGPWLLAGLLKCPVNLFFCLKGPKGYRVILEPFADAIEWRRSDRAQVIAHWATRYAERLGHYCLEAPQQWFNFYPFWKSDDESSS | not soluble
MSIDRTSPLKPVSTVQTRETSDTPVQKTRQEKTSAATSASVTLSDAQAKLMQPGVSDINMERVEALKTAIRNGELKMDTGKIADSLIREAQSYLQSK | not soluble
MSIEGGNYRRIRNFVDRECAKECIEDFSCFGYEWNSEEKICYLKSRSTSGKLIAKPNTMVGFCQDDEDEVRYRLQDHVIVGPIVMEADDVPDGEECKENCRKVGALYYSWRPNSDNQRSNVVPVEEEEDDEEQEVLGHCECISTMNELRLEYDAFSGFIPIPKHKHRRSILLRPFEI | not soluble
MSIIAINENGFLDKIKGRNPLFTCVISSIETTLSIPISGVHRDVIKYTPSADVELVFYGKSLTLKTPPIDATGSPTPATITRACVELKNIKNLHIDAGAFVKPKIPFIEIDEKPTGRIEEGKAMNNSKELYMKGYLLGKNLDAELLIVGESVPGGTTTALGVLLGLGYDAEGKVSSGSINNPHELKIKVVREGLKKAGINEKSSVFDVLNAVGDKMMPVVAGLAISFAERNKPVILAGGTQMSAVLAVIKEINKKVLDKNLIAIGTTEFVLNDKKGDLKGIVEQIGNVPVLASKFYFEKAKIEGLKNYCKGSVKEGVGAGGIAVYSIVNDLEPTKIREFIENKFYEWYKE | soluble
MSIIGRFKDIMSANINALLDKAENPEKMVDQYLRNMNSDLAKVKAETAAVMAEEQRAKREYHECQADMEKMESYAMKALQAGNESDARKFLERKTSLESKLSELQAANQIAATNAAQMRKMHDKLVSDIGELEARKNMIKAKWAVAKTQERMNKLGASVSSTSQSMSAFGRMEDKVNKALDQANAMAELNSAPQDDMADLSAKYDTGGSSQVDDELAALKAKMMLDKLEHHHHHH | not soluble
MSITDVLSADDIAAALQECRDPDTFEPQKFFQTSGLSKMSANQVKDVFRFIDNDQSGYLDEEELKFFLQKFESGARELTESETKSLMAAADNDGDGKIGAEEFQEMVHS | soluble
MSITLITAAPGAGKTIFAVWNIIKPAVEADRVVYTAGIPELKLPAISLSYSQVKRWADRELVEVENPSGIPIPDDEKPSRLQNITEGALIVIDEVQYLWPASGSREPGEDIKYLTKHRHHGLEFVLITQAPQLIHKNVLAVVDKHIHMLSDWHGRKRYEWPEYCATVRATSSKLKAVSQRYELPKEAYGLYRSASMHI | not soluble
MSITSPVSNTWAPTVKGPHGTQSKIDTKSLSPNLSRAELRKQVRLARRSLSTEVQAEASINACERMLKKLMAMNAQHVALYLTHDGELATAPLIAALWQRGIQTYLPRLHPFNAGQLLFLHYHADSPMQPNQYGILEPKLDVRSVMPIERLDVVVTPLVAFDIKGNRMGMGGGYYDRTLANWQDNGKPLPMGYAHDCQQVPSLPCEHWDVPLPAIITPSRVWEFLEHHHHHH | soluble
MSIVMSAGKGVTQVVERCEAAKESGFLDLSSCQLMYMADAVYMLIKGYEITKVSIQDNGFKKFPKKFVIKFPTATILNMANNEISEIPEEVATWTSLKGLNAAKNKISKFPEPFLQLKNLIYLDLNGNQLEEIDVDLFYSSLPALIKLNLSGNEGLGDETKKKLKALKPEKLDLIL | not soluble
MSIVVKKWNELAEVKAELAARDWFFATSGNLSIKVTDDPLTFLVTASGKDKRKQTEEDFLLVDAAGKPAEETNLKPSAETLLHAEIYGRTNAGCVLHVHTVDNNLISELYAQNGEAVFSGQEIIKAFGIWEENAAVRIPIIDNYADIPTLAREFANYIHGDAGAVLIQNHGITVWGRTAFEAKKHLEAWEFLFRWQVKRLLLQRAGLPVG | not soluble
MSIYTLGIDVGSTASKCIILKDGKEIVAKSLVAVGTGTSGPARSISEVLENAHMKKEDMAFTLATGYGRNSLEGIADKQMSELSCHAMGASFIWPNVHTVIDIGGQDVKVIHVENGTMTNFQMNDKCAAGTGRFLDVMANILEVKVSDLAELGAKSTKRVAISSTCTVFAESEVISQLSKGTDKIDIIAGIHRSVASRVIGLANRVGIVKDVVMTGGVAQNYGVRGALEEGLGVEIKTSPLAQYNGALGAALYAYKKAAKSAWSHPQFEK | soluble
